Among the data in US20240115722A1 are Signal:Background values, retold here.

Substitutions are numbered along the chain they refer to.

This assay addresses human EPH receptor A5 (EphA5) expressed on cells (human) (UniProt P54756). The assay is described as follows: high-throughput flow cytometry, HEK293T cells expressing wild-type EPHA5 versus vector alone, Fab at 0.50 µg/ml. (In general: Flow cytometry measures light scatter and fluorescence of single cells or particles in a stream.)

human EPH receptor A5 (EphA5) expressed on cells (human), sequence (P54756 25-1037 limits assumed): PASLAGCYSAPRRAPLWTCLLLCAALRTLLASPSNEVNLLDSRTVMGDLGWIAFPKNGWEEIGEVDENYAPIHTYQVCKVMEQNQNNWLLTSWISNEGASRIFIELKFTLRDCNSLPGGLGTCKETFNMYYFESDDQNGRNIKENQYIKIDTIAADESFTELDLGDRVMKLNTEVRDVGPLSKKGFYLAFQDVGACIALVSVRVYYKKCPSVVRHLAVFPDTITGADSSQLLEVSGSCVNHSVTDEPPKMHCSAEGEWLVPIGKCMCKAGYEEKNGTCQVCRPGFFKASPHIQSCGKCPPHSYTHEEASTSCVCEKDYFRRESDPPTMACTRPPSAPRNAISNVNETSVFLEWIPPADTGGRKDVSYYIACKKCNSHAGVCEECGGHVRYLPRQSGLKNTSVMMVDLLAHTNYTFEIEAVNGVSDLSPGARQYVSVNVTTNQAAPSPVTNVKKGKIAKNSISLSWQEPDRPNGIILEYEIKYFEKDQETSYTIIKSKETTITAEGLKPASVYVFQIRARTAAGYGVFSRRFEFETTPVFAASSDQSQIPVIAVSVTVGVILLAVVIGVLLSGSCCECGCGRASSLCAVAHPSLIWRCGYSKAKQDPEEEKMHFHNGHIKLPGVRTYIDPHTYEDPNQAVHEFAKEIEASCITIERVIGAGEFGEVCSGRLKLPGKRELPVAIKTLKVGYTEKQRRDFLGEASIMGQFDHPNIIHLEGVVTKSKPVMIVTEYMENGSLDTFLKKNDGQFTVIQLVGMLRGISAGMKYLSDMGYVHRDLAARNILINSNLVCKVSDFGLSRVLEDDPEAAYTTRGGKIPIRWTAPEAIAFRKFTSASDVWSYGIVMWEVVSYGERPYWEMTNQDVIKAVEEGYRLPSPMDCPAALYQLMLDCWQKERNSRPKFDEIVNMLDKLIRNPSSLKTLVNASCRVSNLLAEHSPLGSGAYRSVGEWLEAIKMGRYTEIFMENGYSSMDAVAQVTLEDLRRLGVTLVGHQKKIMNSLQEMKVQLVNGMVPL

B1: Fab derived from the H5K3 antibody (Fab, part only; not given: CH1 and upper hinge limits, V domains shown, not shown: another chain or arm of the molecule; a dimerising Fc or GST)
VH: EVQLVESGGGLVQPGGSLKLSCAASGFTFSTFGIHWVRQAPGKGLEWVAYISGASTTIYYADSVKGRFTISRDNSKNTLYLQMNSLRAEDTAVYYCARYGTSFPYGLDYWGQGTLVTVSS
VL: DIVMTQSPDSLAVSLGERATINCKASQSVDYDGDSYMNWYQQKPGKAPKLLIYGASNLESGIPDRFSGSGSGTDFTLTISRLEPEDAAVYYCQQSNEDPFTFGQGTKLEIK
In the case of B1, the Signal:Background turned out to be 70.

B2: Fab derived from the H4K3 antibody (Fab, part only; not given: CH1 and upper hinge limits, V domains shown, not shown: another chain or arm of the molecule; a dimerising Fc or GST)
VH: B1 VH with S63T
VL: B1 VL
B2 returned a Signal:Background of 66.
